In the DeepSol protein solubility set:

assay: soluble on expression in E. coli; label from the status in PepcDB or PDB records

| Sequence | soluble on expression in E. coli |
| --- | --- |
| MGSDKIHHHHHHMYSFVARQPILNQHRQTVAYELLFRMDITNKFPDVSPEFATAQLISDQFLTNPLARSVVEQPYYINFPHQMLINGQAEVLPQEKVVIEILENAAPDNDLFAAVKKLKRKGFKIALDDFSMDSEWDRFLPYIDVIKFDLTLSTFGDIENFIKRTKQRKLIYLAEKVETHEQYMQSKKLGISLFQGYFFSRPEMIKSKKLVNKSSNTIRLLREVNKPEINYAAIEELVCADLSLYYKLMRHITNIKYNTRFGITATSMSFRSMAMLLGQRELKRFVSLISITNSNENKPSELYRTSLIRARFFELLYASFNVKEDTTEAFLCGLLSLLDAVLDSPMPLLLSQIALSEKINQSLLENTGELAVYLTLIAKYEQQEWEELERLLIQLGIDEENFFTMIMEATQWADEIL | not soluble |
| GPGSMSYHGPNREGLGEDLEEAEEAFIDLEDPNIEILDEAALPEEDGDDASDVVDNHAGMDVQDRGNEEEGEGLHLGVEVEDLNAAPDYEPEHDDAFATFVAPAKKPLHAIAVHPQNERIFAVGGEGEEVYILEMDHAGKEPALKATLTGHTDTVSLLSFSPNGQWLASGSLDSSVAVWSTETWERKHTLGDLYGEIMTLLWHPSSLILAAGADDAQAAMWNVVKGTLIMYFVGHRGAVTCTAWSPDVKKLVTGSSDGTVAVFNPKTGDQELCISKDLSPDNAGITALQFVNADQCVVGCEDGTLHVISLRSGKVATHFEDLHEQAIESLAINRSSLLLLTASCDCRVIVWNVADFSPRATVEVGESVIPALWSHSNLIAAGCSDGNIRVWDGRSSAQDPLALLMGHRRMVLGLVTTSTVLASTSDDGTAKFYRFAETFR | soluble |
| EQSSSEIKIVRDEYGMPHIYANDTWHLFYGYGYVVAQDRLFQMEMARRSTQGTVAEVLGKDFVKFDKDIRRNYWPDAIRAQIAALSPEDMSILQGYADGMNAWIDKVNTNPETLLPKQFNTFGFTPKRWEPFDVAMIFVGTMANRFSDSTSEIDNLALLTALKDKYGVSQGMAVFNQLKWLVNPSAPTTIAVQESNYPLKFNQQNSQTAALLPRYDLPAPMLDRPAKGADGALLALAAGKNRETIAAQFAQGGANGLAGY | soluble |
| MSLKSTVLLIDDDQDVLDSYLHLMSIAGLTAKAVIDPTQAMSHIQPDWNGVVLLDMYMPQLHGMELLKQIKAVDDKIPVIVITGHGDIPMAVEAVKMGACDFLEKPINPPQLLTLIKQHLELRRSFIEQKLLLSRSVKRELVGKSAQMEQIRSHVAQYALLNRHVVIVGESGCGRHTIAYLIHQLTTNNGHLPWVELVASAKTEWSTVEPKVQESAGGTLLIDHIELLSEEVQRNVVQSLLNQERLNRPRTRVIAVIDQPPEQLIAQNQLLPELYYLLNQGQIDVPLLRQRPDDIAALFHYFLKQSCYKLGKPMPNVEPHYLALLRAHQWPGNVRELRNVAELYAIGIVKLAGKERLYNQEEMLSPLDELVDDYEKQVIEDALFLFSGRVADAANYLQVPRKKLYLRMKKHGLEKDAFKAREGHHHHHH | soluble |
| MAHHHHHHMRARPSWHLRLNKNRDDVTTFRGFPATARSCCSIGSISGLQALPHPMELSSVEYRSEGWTHAICRLYRTLYKLHAKQLHPIQREFGDRFVQTEFQRHIDASEKHARIFYQSWYSYAVQLLVGQTSRDMTAEEQQQLTPEQKETMRRLRSHVLQAKQSEPGFHL | not soluble |
| MAGNHTNRPGLRKTNKKGATKGSGAVRRRGLKGKGPTPKAEDREYHAAYKKKMERKRRDQGRHVKEETSELVVGRNPVVECLHAKVPATT | not soluble |
| EKGFKVVVLESAKVGFGATGRNGGQIVNSYSRDVDVIESRYDQNQAKALCDMIFEGGDIIRGLIDKYDINCDYKQGGLFTALNSKQLKGLEEHKKNWERYGNDQLTLLDAGEVEQAVGTKVYTGGLLDMRGGHIHPLKLALGEAAAFISLGGQIFEQSAVVSIDKGMNPVVKTAQGSVKSK | not soluble |
| SLKKEISILNIPFYNTTQAGFVEELYMAAKNGERRFVVTANPEIVMHARTDKEFEAILGQADYIVPDGIGIIMASEKLGEPLKERVTGYDTMVGLLNKPLSCYFLGAKPEISEVVEAKVREKFPQAVVCGVHHGYFDVLESEAIAKEILVAQPDVIFVALGSPAQEKWILSQIANFTKGIFIGVGGSFDVLTDSVKRAPKIWIKLRLEWVYRLLSNPSRWRRFFAIPQFMLVIRKERKRLKKG | soluble |
| MISCSEEGSNKILVAISLDRDESQNVLSWAINVLAKPSDTVVALHLLVGEEPRKLPMKKKKRTQIRHAKAHVISMLGEFAYTCCHNQVNLEAKVGFSSNIGRGLIDEVKSISAHYLVLSRPTTHEFR | soluble |
| AHHHHHHGSITLELHPSEIARYFELEECSHYFSNLLLRKRGELQEFEPIIRRKEIETIELAKWGDEFELSLLQEFKKGEALKKLGVKELPRFYGFLTENDTPVRKFFEKYFKDGIIVEEDPDKLLEIINSEKSAVIYQAPLKGRIGKFDVSGRADFIIKVGKTLYLLEAKFTKEEKFYHRIQAIIYAHLLSQMIEGYEIKLAVVTKENFPIPSNFLRFPGDVEELKITLEEKLGGILREQELWIDARCTTCPFEALCLSKALEERSLGLLSLPPGIIRILKEEGIKDLKDMAKLFEFKENSPTNFEEPSIKDPKKTQEIAKRTGINLLKLSRIAQAILKYLDEGETTPLFIPRTGYNLPMDERVGDVEPSYYPPRSLVKVFFYVQTSPITDTIIGISALVKNRQNGERIIVKFVDEPPIEVSDAQEKERMLLIEFFRDVIDAVKSLSPTDKVYLHMYFYNRKQRDDLMDAVKRHKEIRENNAVMALLSLRRAIDWESFSIIKDEIIRRHALPLSPGLGFVTVATQFGYRWRRNKTFARMLEVVARRENGKINLKTLLNISETGIGPEYYPIIDRDNEGIPFTLFWSALVKLATEEDNSRIKRDIRDILSQMVEALKTIEERIPEQYKDAFVKKEGIPKEDLENFDIKKEELADILLEYLQLEFDARFRERSEYYRLPLSIRAYSEESALIKIENIEKKKNDCLLFGKIVLIDENGRIKEYNPKEVLIDIDEGSLVVVTPKKFLDKLRRDPVQRISKSPLGIVEAIDHETGKVVIRLIRVSPGRFTLKHSKFSCKNGLLTITYPEGEVKVTPGEIVIVDPSVDDIGMERAYNVLSEISQGELKHEIYQKVKAIYEGNTESRYEVNIWKKKHIEEFLSRVKKINEEQKKFAIDINNFLVTLQGPPGTGKTSGAIAPAILARAYSMVKDKKNGLFVVTGVSHRAVNEALIKTLKLKKELENTLKELRKIDLIRAVSGEEAIKIIKEELEREIKDDVDRIRFTAQEITHSSKQRSLDKYFANSGTVRIVFGTPQTLNKLMKNTKEVELVVIDEASMMDLPMFFLSTKVCKGQVLLVGDHRQMEPIQVHEWQLEDRKTFEEHYPFLSALNFIRFLRGELDERELKKFKRILGREPPEWKKDKNEVLPLYRLVRTYRLPQEIADLLSDAIYRADGIKLISEKKKRRKIIARHKDEFLSIVLDDRYPFVLILHDEGNSTKINELEAKIVEKIIKRVENIDIGVVVPYRAQKRLIASLIDSAQVDTVERFQGGEKSLIVISMTSSDPRIPGKGF | not soluble |
| MSLAQISSLFVTRLYHAPLSDHGPAIDAEEMESSCYAIAEDDEAGQGWCEENGYPGYTSYASLTDLPWRFPIFADLVKSLDAHVAAFAEDLEFDLDGRALELEDLWINILPEGGSHASHIHPHSVISGTTYVSMPGGTSALKLEDPRHAMMMAAPARRKTARDELRQFIYVTPAVGDVLLWESWLRHEVPMNMSEDDRISVSFNYRWAEGHHHHHH | soluble |
| MSYAYLFKYIIIGDTGVGKSCLLLQFTDKRFQPVHDLTIGVEFGARMVTIDGKQIKLQIWDTAGQESFRSITRSYYRGAAGALLVYDITRRDTFNHLTSWLEDARQHSNSNMVIMLIGNKSDLEARREVKREEGEAFAREHGLVFMETSAKTAANVEEAFIDTAKEIYRKIQEGVFDINNEANGIKLGPQHSPSSPNSPGGNATGGLGGGSGCC | not soluble |
| MAHHHHHHMKIVPPNFGYVEERIFRCGAPEPCHYAFLASLKLRTCVLLTESHDEAFVRWLRENNVHTVCPLYDGSRMNGLGDKMGCVGYHTGSMTLSEPVVVDILHVLVDPINYPLLLTCSVGRYRTGIVCGCLRKLQGWSLVSILEEYRRYAQDKGRAENEEFIELFDKDLVNLELKDGRRPTILYPYDV | soluble |
| MKAVTFPVPWEYLKRIFEGKNVFVKPATLRVEEGMKVIFYASRENQGWHGEAEVERVEYYTSVEEIIKKYRDKLFLTPEELRRYERDRARWDSGRRKRPWMVLVLRNIEKYPRVVKPKKFIVVSGRYVDEKEYEEIRRSTSLEHHHHHH | soluble |
| MGSDKIHHHHHHMAQGTLYIVSAPSGAGKSSLIQALLKTQPLYDTQVSVSHTTRQPRPGEVHGEHYFFVNHDEFKEMISRDAFLEHAEVFGNYYGTSREAIEQVLATGVDVFLDIDWQGAQQIRQKMPHARSIFILPPSKIELDRRLRGRGQDSEEVIAKRMAQAVAEMSHYAEYDYLIVNDDFDTALTDLKTIIRAERLRMSRQKQRHDALISKLLAD | soluble |
| MNHMKKNILFDGLRSVARIGETAFVAARAGIKYATEKPSNAKLMRETFESLGSTYIKLGQFIASTPSLFPREYVEEFQGCLDQTPTLPFSYIQEVLAEEFEGRDLNQIFASIDETPLASASIAQVHAARLTTGEDVVIKVQKPGVETILYTDLNVVHWATKMLEKAIPKVKFASLSEIVEEIKIRMVREVDFIEEAQNLDDFVEYLKITNNQAATAPKVYHQFSTRRILTMERLYGVSLTDFDIVKKFAKDPSQVLITAMNTWFGSLMLCKSFHADLHAGNLMLLEDGRIGFIDFGIVGQLNPQVWTACLAFMDALQKTDYTAMAENMLKMGMTKTQIDTQVLAQDLERLFSGVLLADPQEILASKPSDLNDIMLDMVAVGERHGIKFPRDFALLFKQMLYFDRFMRVLAPYTDIYADQRLKMVQTIEPQSLLKHLEHHHHHH | soluble |
| MSLDLFRSEPVAQPLAARLRPANLDEYVGQEHLLARGKPLREALEQGALHSMIFWGPPGVGKTTLARLLAQVSDAHFETISAVLSGVKEIRQAVEVAKQHAAQYGRRTILFVDEVHRFNKSQQDAFLPYVEDGTLIFIGATTENPSFELNNALLSRARVYVLKSLDEAALRKLVGRALNEDKGLGKRKLRLPEESFQVLLAAADGDGRRLLNLLENAADLAEDGSEISPELLQNLLGDTRRRFDKGGEAFYDQISALHKSVRGSNPDAALYWFARMLDGGCDPLYIARRVVRMASEEVGNADPRALGLCLSAWDVQERLGSPEGELAVAQAIVYLACAPKSNAVYSAFNAAMRDVAESGSREVPLHLRNAPTKLMKSLGYGEEYRYAHDEPDAYAAGEDYFPEDLEPRRYYQPVPRGLELKIRDKLEHLAELDRTSPRQREGHHHHHH | soluble |
| MTDQATPNLPSRDFDSTAAFYERLGFGIVFRDAGWMILQRGDLMLEFFAHPGLDPLASWFSCCLRLDDLAEFYRQCKSVGIQETSSGYPRIHAPELQGWGGTMAALVDPDGTLLRLIQNELLAGIS | soluble |
| MVRKVLIIGGGFSGMAAAIQMRKAGIDVDLVEIDPNWRPEGAGITVNGPTLRALETIGVFDEFARRGFTSSGVDLFTPTGQKIGEIPTPKVAGSDVPGGGGIMRPELGRILADATRGSDVSVRVGCTYTAIEQTGDQVTVAFTDGTTDTYDLVVAADGVHSKTRERFFPEVKPPQYIGQGVWRTVLPRPAEIVRPRMWLGGTVKVGVNPVSQTHLYMFITEARPEKTNLDPATFPDLVTSMLKSFPDPIVQSLIPHVFAAEAAIDYRPLANLLVPAPWNRGRVILIGDTVAATTPHLASGAGIGIESGIILAEELAKAATLQDAFDGFHARRWERCRMVIENSERLCRIEMENGDKAEHARIMRESVMALTQPILEHHHHHH | soluble |
